One block for each binder: values may come before it.
B1: Fbx4G (Fbx4 GTPase domain, residues 162–387) (domain or fragment, human, UniProt Q9UKT5 162-387, looked up)
chain: GAVTSFLHSLIIQNEPRFAMFGPGLEELNTSLVLSLMSSEELCPTAGLPQRQIDGIGSGVNFQLNNQHKFNILILYSTTRKERDRAREEHTSAVNKMFSRHNEGDDQQGSRYSVIPQIQKVCEVVDGFIYVANAEAHKRHEWQDEFSHIMAMTDPAFGSSGRPLLVLSCISQGDVKRMPCFYLAHELHLNLLNHPWLVQDTEAETLTGFLNGIEWILEEVESKRAR
B2: TRF1_(TRFH) (TRFH domain of TRF1, residues 58–268), GST tag removed (domain or fragment, human, UniProt P54274 58-268, looked up)
chain: EEEEEDAGLVAEAEAVAAGWMLDFLCLSLCRAFRDGRSEDFRRTRNSAEAIIHGLSSLTACQLRTIYICQFLTRIAAGKTLDAQFENDERITPLESALMIWGSIEKEHDKLHEEIQNLIKIQAIAVCMENGNFKEAEEVFERIFGDPNSHMPFKSKLLMIISQKDTFHSFFQHFSYNHMMEKIKSYVNYVLSEKSSTFLMKAAAKVVESKR

Legend:
[1] = target: B2; test: crystal structure
crystal structure = target: the molecule itself; test: crystal structure
[2] = target: B1; test: pull-down

Binder: B1
- stoichiometry N [1]: 1 Fbx4G per TRF1_TRFH (printed as 2:2)

Binder: B2
- binding result (crystal structure): binds

- binding result [2]: binds
B3: GST-TRF1_(TRFH) (domain or fragment, human, UniProt P54274 58-268, looked up)
chain: EEEEEDAGLVAEAEAVAAGWMLDFLCLSLCRAFRDGRSEDFRRTRNSAEAIIHGLSSLTACQLRTIYICQFLTRIAAGKTLDAQFENDERITPLESALMIWGSIEKEHDKLHEEIQNLIKIQAIAVCMENGNFKEAEEVFERIFGDPNSHMPFKSKLLMIISQKDTFHSFFQHFSYNHMMEKIKSYVNYVLSEKSSTFLMKAAAKVVESKR

Source: paper PMC6097615 (Developmental cell, 2010)
